assay: soluble on expression in E. coli; label from the status in PepcDB or PDB records

Sequence	soluble on expression in E. coli
MFAFSKGPAGSSTYDRVAQKFQDGYEKMRAAIEMDELTKHAGSIQEKLRTAELYKEARSLLKEANEFNIMDIPETRRSEIRDKRQNMMKLEKSAQDRLIAICNEVDPNVKQSRSATVGPSRPASAARVTPRPTRATAPASLPMHQNPVNRAALLNGVDKVIGERLLDEVLDNTGVRMDDVAGCHSAKAALEEAVILPALNPNLFKGLRQPVKGILLFGPPGNGKTLLAKAVAGESKQMFFNISASSLTSKWVGDSEKTIRGLFQIARNAQPSIIFIDEIDSILCERSEKDAEVSRRMKTEFLVQFDGATSSADDRILVIGATNRPHELDDAVLRRFPKRIMLNLPDEEARKELITKTLKKHNMMDGLISSDIRYIASNTSGFSNSDLVALCKEAAMVPIREIDRSKLSMTDGEKIRKIRASDFDTALRTIRPSTSQKIMSKLSDFSRSFGC	not soluble
MFDPKQFDELANKLFATLPTSLQNFEKDIQQKFKEVLQSTFSRMDLVTREEFDVQCKVLARTREKLEQLQHQLEDFIKRQEVKNNK	not soluble
MFEKGYVDENYIRVPKDRLFSFIVRVLTKLGVPEEDAKIVADNLVMADLRGVESHGVQRLKRYVDGIISGGVNLHPKIRVIREGPSYALIDGDEGLGQVVGYRSMKLAIKKAKDTGIGIVIARNSNHYGIAGYYALMAAEEGMIGISMTNSRPLVAPTGGIERILGTNPIALAAPTKDKPFLLDMATSVVPIGKLEVYRRKGKDIPEGWAINREGNITTKVEEVFNGGALLPLGGFGELLGGHKGYGLSLMVDILSGILSGGTWSKYVKNTSEKGSNVCHFFMVIDIEHFIPLEEFKEKISQMIEEIKSSRKHPEFERIWIHGEKGFLTMETRLKLGIPIYRKVLEELNEIAKRVGVEGL	soluble
MFERVREDIQSVFHRDPAARNALEVLTCYPGLHAVWLHRLAHGLWTSGWKWLARLVSNFGRWMTGIEIHPGARIGRRFFIDHGMGIVIGETAEIGDDVTLYQGVTLGGTTWNKGKRHPTLGNNVVVGAGAKVLGPFTVGEGAKVGSNAVVTKEVPPGATVVGIPGRIIMREDSEQQAKRQAMAEKLGFDAYGVSQDMPDPVARAIGQLLDHLQAVDGRLEGMCQALTALGSDYCAKDLPVLREEDFAGVKDEDGNPAALEHHHHHH	soluble
MFFIHKLFPAKLIRRYKRFLADVKREDQHIFTVSVPNTGSMLGLTTPNSNIWLSYHNNPKRRYAYQLEIVEANNTLVGINTTLPNKLALEAIQNNLLPELNGYKTILKEQRYGIQSRIDFLLRDDILPDCYLEIKNVHFIRQKGLAEFPDTETKRGTRHLEELIKIVQQGKRAVMLYIIQREDCSAFTICRDLDPTYGRKFDLALESGVEFYAIKCQVSVEGIFPIQQVKIENRK	not soluble
MFGFGGFTRDLGIDLGTANTLVYVKGKGVVLREPSVVALQTDTKQIVAVGSDAKQMIGRTPGNVVALRPMKDGVIADYETTATMMKYYIQQAQKSNGFFSRKPYVMVCVPSGITAVERRAVIDATRQAGARDAYPIEEPFAAAIGANLPVWEPTGSMVVDIGGGTTEVAIISLGGIVTSQSVRVAGDDMDDSIIQYIKKSYNLMIGERTAEALKLEIGSAGEPEGIEPMEIRGRDLVSGLPKTVLIQPEEIADALKDTVDAIVESVKNTLEKTPPELAADIMDRGIVLTGGGALLRNLDKVISEETNMPVLVAEDPLDCVAIGTGKALDNIDLFKTAAR	not soluble
MFIGGAIISFLFLFGYMWKEAHSNRIRHVTLSFPHFPDNGPPLTIFFISDIHRRSVSCRMLETVKGKADLVVIGGDLAEKGVPAARVRENVRRLQTVAPVYFVWGNNDDEVDYDLQSLLEEERVYVLKNKAEVWEHGGVPIALIGVGDVSRKEADIARALEHVPPESFRILACHNPAIIARLEDEQHISLVLSGHTHGGQIRLFSFGLYEKGGLKWHGNTALFTSNGYGTTGVPLRLGAPAETHLIKIVPGKLATEKLEHHHHHH	soluble
MFKFHLITKDGKARRGRIYTPHGVIETPVFMPVGTQGTVKAMLHKLLDEIGTQIILGNTYHLYLRPGTEIIKKAGGLHRFISWNKPILTDSGGYQVFSLAKGKFGNRKAKVKVSDEGVEFQDHLQGDKHFFTPEKVVEIQEIFGSDIMMPLDECVEYPVDKNYAEKALKRTINWLERSIKAKKREDQVLFGIVQGAFWKDLRKKAVEETLKFDEFLFGYSIGGLSVGEPKEIMYGMTEVVCELLPEKKPRYLMGVGKPEDILEAVERGVDMFDCVVPTRNARTGTLYTSQGVVDIRHSKWKEDFSPLDPECDCYTCRNFSKAYLRHLFVAEEISAYVLNTIHNLRFYLKMMEEVRKAIEEKRFKELKEKYLQRVKNKL	soluble
MFKIQEVRELIKLIDSSNIDEFEYKKDGTTIKMKKRGNEVVAVQAPVAKQAVQPVAPVEVETTVAAAQVEVPKQEEKKAVQNENLHKITSPMVGTFYSSSSSSPDTPPYVSVGDRVSKDSIVCIVEAMKLFNEIDADVDGEIVEILVNNGQLVEYGQPLFLVKA	not soluble
MFKKFLSLCIVSTFSVAATSALAQPNQLVGKSSPQQLAPLMKAASGKGIKNQYIVVLKQPTTIMSNDLQAFQQFTQRSVNALANKHALEIKNVFDSALSGFSAELTAEQLQALRADPNVDYIEQNQIITVNPIISASANAAQDNVTWGIDRIDQRDLPLNRSYNYNYDGSGVTAYVIDTGIAFNHPEFGGRAKSGYDFIDNDNDASDCQGHGTHVAGTIGGAQYGVAKNVNLVGVRVLGCDGSGSTEAIARGIDWVAQNASGPSVANLSLGGGISQAMDQAVARLVQRGVTAVIAAGNDNKDACQVSPAREPSGITVGSTTNNDGRSNFSNWGNCVQIFAPGSDVTSASHKGGTTTMSGTSMASPHVAGVAALYLQENKNLSPNQIKTLLSDRSTKGKVSDTQGTPNKLLYSLTDNNTTPNPEPNPQPEPQPQPDSQLTNGKVVTGISGKQGELKKFYIDVPAGRRLSIETNGGTGNLDLYVRLGIEPEPFAWDCASYRNGNNEVCTFPNTREGRHFITLYGTTEFNNVSLVARY	not soluble
MFKRVFNLRFISNFSRRPTSSPKLPKLIAITGGTSLGIAFFGKTEENKNLDSGNGQLIDGKPKNFDLIVRNSDELYDNYLIDNCYNILKKFENSNCSELLWRLARVVCEKGKLSKDQNQRKELILEAYGIVKKALDNEPKNGCFGAHKWYAILLDYVGEIEGNKSRIEKSFQVRKHLEKALSIFENDPTTWHILGVWHFSFANMGYATRMVAKAIFATPPASTYQEALHYFLKAEQISPGFYSTNTYYIGEVYEQLGQKAEALDAFKQSFKMPVVTSDDAVIHKKAYEKLKKYGVKDTEVV	not soluble
MFLRIDRLQIELPMPKEQDPNAAAAVQALLGGRFGEMSTLMNYMYQSFNFRGKKALKPYYDLIANIATEELGHIELVAATINSLLAKNPGKDLEEGVDPESAPLGFAKDVRNAAHFIAGGANSLVMGAMGEHWNGEYVFTSGNLILDLLHNFFLEVAARTHKLRVYEMTDNPVAREMIGYLLVRGGVHAAAYGKALESLTGVEMTKMLPIPKIDNSKIPEAKKYMDLGFHRNLYRFSPEDYRDLGLIWKGASPEDGTEVVVVDGPPTGGPVFDAGHDAAEFAPEFHPGELYEIAKKLYEKAK	soluble
MFLSRGFNAFIAKPIDVMQLDAVLNTWVRDRKSIEILKQAEMIAPLIIENANQNIFDSVQIEGLDLVRGKKKYNNDAAYLDILRSWHKHTPALLEKMRNPVFENLSEYAITVHGIKGASLGICADEISSKAEELEHYAKSGNIGKVQADNSMFIGMAESLLANIGELLEKFDVGKKEKPKKHAPDPALLDRLLEAAKSYKSTLMEETMCSIESYDYDSDMELVTWLRQQMDDLEYDAIRQKLESRMPGFVET	not soluble
MFLVDSHCHLDGLDYQSLHKDVDDVLAKAAARDVKFCLAVATTLPGYRHMRKLVGKRDNVVFSCGVHPLNQDEAYDVEELRLLAAEDDVVAMGETGLDYFYTPETKIRQQASFIHHIQIGRELHKPVIVHTRDARADTLAILREEKVTDCGGVLHCFTEDRETAGKLLDLGFYISFSGIVTFRNAEQLRDAARYVPLDRLLVETDSPYLAPVPHRGKENQPAMVRDVAEYMAVLKGVAVEELAQITTDNFARLFHIDASRLSSIR	not soluble
